Tests used:
[1] = target: T1, human aquaporin 4 (hAQP4) M23 isoform (human, UniProt P55087 1-323); experiment: ELISA on plates coated with budded baculovirus expressing human AQP4 M23
[2] = target: T1, human aquaporin 4 (hAQP4) M23 isoform; experiment: cell ELISA on live CHO cells expressing hAQP4 M23, 37 °C 1 h, 4-parameter logistic fit

T1 sequence (P55087 whole entry, canonical isoform): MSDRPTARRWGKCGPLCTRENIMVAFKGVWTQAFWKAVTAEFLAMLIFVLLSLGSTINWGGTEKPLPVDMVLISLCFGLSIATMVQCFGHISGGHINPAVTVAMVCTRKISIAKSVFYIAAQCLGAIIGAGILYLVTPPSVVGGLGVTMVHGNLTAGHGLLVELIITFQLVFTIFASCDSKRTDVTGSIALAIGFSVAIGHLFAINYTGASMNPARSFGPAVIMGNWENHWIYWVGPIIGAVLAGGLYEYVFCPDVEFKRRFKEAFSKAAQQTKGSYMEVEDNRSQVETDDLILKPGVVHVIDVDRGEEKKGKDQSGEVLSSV

EC50 [1]	EC50 [2]	Binder
0.166 nM	0.162 nM	anti-aquaporin 4 monoclonal antibody produced by hybridoma clone C9401 (antibody, V domains shown, also called C9401 antibody; original antibody (C9401)) VH: QVQLQQSGPELVKPGASVRISCKASGYTFTNYYIHWVKQRPGQGLEWIGWIYPGNVNTKKNEKFKGKATLTADKSSSTAYMQLSSLTSEDSAVYFCARGVPYAFWGQGTLVTVSA VL: DIVLTQSPASLAVSLGQRATISCRASKSVDSYGNSFMHWYQQKPGQPPKLLIYRASNLESGIPARFSGSGSRTDFTLTINPVEADDVATYYCQQSNEDPPTFGGGTKLEIKR
	0.15 nM	anti-aquaporin 4 monoclonal antibody produced by hybridoma clones D15107 and D15129 (same antibody) (antibody, V domains shown, Mouse antibody from hybridomas; They are therefore one molecule here, and the rows keep the printed label; also called D15107 (D15129); D15107/D15129) VH: QVQLKESGPGLVAPSQSLSITCTVSGFSLTSYGVHWVRQPPGKGLEWLGVIWAGRRTNYNSALMSRLSISKDNSKSQVFLKMNSLQTDDTAMYYCARGDGIFPYWGQGTLVTVSA VL: DIVLTQSPGSLAVSLGQRATISCRASESVDSYGNSFMHWYQQKSGQPPKLLIYRASNLESGIPARFSGSGSRTDFTLTINPVEADDVATYYCQQSNEDPFTFGSGTKLEIKR
	0.116 nM	anti-aquaporin 4 monoclonal antibody produced by hybridoma clone D12092 (antibody, V domains shown, Mouse antibody from a hybridoma; also called D12092 antibody) VH: QVQLKESGPGLVAPSQSLSITCTVSGFSLTRYGVHWVRQPPGKGLEWLVVIWSDGSTTYNSALKSRLSISKDNSKSQVFLKMNSLQTDDTAIYYCARGPPFAYWGQGTLVTVST VL: DIVLTQSPASLAVSLGQRATISCRASKSVDSYGNSFMHWYQQKPGQPPKLLIYRASNLESGIPARFSGSGSRTDFTLTINPVEADAVATYYCQQSYEDPPTFGAGTKLEIKR

Reference: patent publication WO2014196658A1 (dated 2014)
